From the supplement of paper PMC12042874 come the findings set out here.

± gives the uncertainty stated by the source.

The nature of the data set: amyloid nucleation score (Sup35N fusion, yeast selection) (log enrichment); library NNK2; higher = more nucleation; inactive = no reads after selection. The gist of the method:
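Random libraries were run with three technical output replicates. In each, psi-negative yeast expressing Sup35N fused to peptides of 20 random codons were induced 24 hours with 100 μM copper sulfate and grown 7 days at 30°C on medium lacking adenine and uracil, and input and output plasmid inserts were Illumina-sequenced. The nucleation score is the DiMSum log enrichment of output over input reads, centred on the mode score of non-aggregating sequences, and sequences under 100 input reads were excluded.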
In turn, CPFVATGDP had an amyloid nucleation score of -0.849 ± 1.1. As to CPIYDRTQGLIGLWCLCNEC, the amyloid nucleation score is -0.668 ± 0.34. To CPSVSSRSRELSLLTDQEVI belongs 0.812 ± 0.4. In the case of CPVSAASLSNLFDVAHNGVR it was 5.354 ± 0.035.

CQGVSYHYLTACRNKLCHES had an amyloid nucleation score of 0.107 ± 0.79.

Substance CRCISVPCVVFVV registered an amyloid nucleation score of -0.142 ± 0.79. Regarding CRDSPVKNQGPYLGFM, the amyloid nucleation score result was “inactive”.

Consider CRINFTFDELVVVSQILTWL, for which the amyloid nucleation score was 4.07 ± 0.058. In the case of CRLCSGLREMQPIRLM it was 0.77 ± 0.51; in that of CRRENRCNRWFQ, -0.602 ± 0.61; in that of CRRVIAESFYDTSLSCSAVG, 0.877 ± 0.47. To CRSATEPCVLSC belongs 0.56 ± 0.74; to CRSCEIVLGFLLSCNMCVLS, 3.79 ± 0.06. To CRSFAFTLSNMYLMM belongs 6.52 ± 0.082; to CRTRGMVRLYGTRRK, “inactive”.

In the case of CRVRYTGGY, the amyloid nucleation score is 0.523 ± 0.35.

In the case of CSAATSGYYMSQDRLSDTTT, the amyloid nucleation score is -0.184 ± 1.1. In the case of CSCSVIGWFLHPVATVINLT it was 2.73 ± 0.07; in that of CSEYLCGVKVLTCWFGRRYS, 0.174 ± 0.4; in that of CSFGPIVAD, -1.12 ± 0.63. In the case of CSFLSLY it was -0.485 ± 0.64; in that of CSFYRSWVLTNWSANVVFTW, -0.217 ± 0.39. To CSKDMSQKLVYRLWSIIVMA belongs -0.542 ± 0.33.

CSKLAGKHVNISVGPLWRAG: the amyloid nucleation score was 0.183 ± 0.53. In the case of CSLFLWGLMDLLV it was “inactive”.

For CSSSNINRFS, the amyloid nucleation score turned out to be 2.99 ± 0.12. To CSSSVNCMFITC belongs 7.87 ± 0.047. In the case of CSVSGNLQISFYGNMPINSF it was -0.924 ± 0.78; in that of CTAQRNGKYDHGEDSLRLSR, 1.49 ± 0.36; in that of CTFSVF, -1.71 ± 0.48. To CTHNTSKVSKMVIVCPRFNL belongs 6.218 ± 0.035; to CTKDTHNRVGHLRSHVDGSL, 0.572 ± 0.8.

Consider CTLRAVMSIVRGYFRCYLVC, for which the amyloid nucleation score was 0.255 ± 1.1. In the case of CTLRSLEAVLRVLIGYALRH it was 0.223 ± 0.3; in that of CTNAGRFMTWSNFRYIG, 0.501 ± 0.8. CTSDVGGSQERVGSIQANSN came in with an amyloid nucleation score of 2.48 ± 0.2. In the case of CTVLSDRTCYSSTERLVRIH it was “inactive”; in that of CTVRDSMAGIYLVDLVSCIR, -0.21 ± 0.6.

Substance CVFISLNMNKIYMLDNSGQW yielded an amyloid nucleation score of 8.445 ± 0.036. In the case of CVGGGRQKCEHNVMITLMTF it was 4.22 ± 0.056. In the case of CVGNNMCSGKNF it was “inactive”; in that of CVHTAVVRILIRAKKAGLIT, “inactive”. To CVIYVKVIIMPVSIVDVGSV belongs -0.351 ± 0.48. For CVLGAVYLHRLTDGCDVKFT, the amyloid nucleation score turned out to be 0.762 ± 0.81. In the case of CWDEQLQPS it was 0.744 ± 0.45; in that of CWFSVYNTLVGCNLVPTKGD, 6.666 ± 0.065; in that of CWGGISSALRQ, 0.698 ± 0.8.

Substance CWNDSRMCR registered an amyloid nucleation score of -0.387 ± 0.26. To CWRNTDLKGLGNWPSLLASV belongs 0.589 ± 0.57; to CWVIKGRAKCV, -0.26 ± 1. To CYARSASGVAIAVRRKRGVQ belongs 1.23 ± 0.18. To CYCSSL belongs -0.253 ± 0.2; to CYFCWDFLIGCNFTHNAQ, 7.237 ± 0.063. CYGDAWSWEISMFCCVCRGF: the amyloid nucleation score is 7.523 ± 0.042. As for CYHRKFVLLFFLSNR, the amyloid nucleation score entry was “inactive”.

As to CYKWLAYY, the amyloid nucleation score is -1.44 ± 0.75. Take CYLYFIEYWFSEAPYFTSER: the amyloid nucleation score is -0.959 ± 1.1. To CYMVRGYSFSNRWTAHGHEM belongs 2.51 ± 0.21. In turn, CYRYVGCSTYSTDQVVCAYK gave an amyloid nucleation score of 6.006 ± 0.051.

Turning to CYVLFIRSDYGTWSMVH, the amyloid nucleation score amounted to 4.53 ± 0.051. Consider CYVNWGCNGEISGIVFDSMK, for which the amyloid nucleation score entry is “inactive”.

For CYVSFCKGA, the amyloid nucleation score amounted to 0.049 ± 0.76. To CYYMCAYRGVAK belongs 0.637 ± 0.36; to DACAFVCLYWNVLTRFELMP, -0.458 ± 0.32.

The substance DALGSYWMTAMTF showed an amyloid nucleation score of 0.371 ± 0.44.

Consider DAMRVASEHIIVTAAAS, for which the amyloid nucleation score stood at 2.72 ± 0.12.

As for DANLLFGYFPCPCT, the amyloid nucleation score result was “inactive”. To DATNQRYVPRLFHKMSITGS belongs 0.848 ± 0.57; to DCLGVSFNDFQFLLVSAITR, “inactive”. To DDIKIWFRATVHVVF belongs “inactive”. In the case of DDTLVVLPTRYLTPIWEMH it was 2.4 ± 0.18; in that of DECCMWMVLPEGSPAQRPLG, 1.04 ± 0.34; in that of DEIIQRWIFNFIWDRLFYLR, 0.94 ± 0.14. Take DELDVFG: the amyloid nucleation score is -0.893 ± 0.44. To DESIEYSDSGGSCSFPVSK belongs “inactive”; to DETYHKYDRFWLGVMSFGFY, -0.787 ± 0.34. To DEWQRGRTLSDTF belongs -0.295 ± 0.76. To DFCGRG belongs -0.152 ± 0.76; to DFCWAFRAASLSRGVRLAAV, 3.23 ± 0.11; to DFDGRRHSDNDLSWNSNF, -1.42 ± 1.1. Take DFNSDFAGLLLDTNKYYIHD: the amyloid nucleation score was -0.088 ± 1.1.

In the case of DFRCADCLKINFSIVQSK, the amyloid nucleation score came to 7.257 ± 0.05. For the substance DFRKNANRLLRIYGVMRECA, the amyloid nucleation score is -0.016 ± 0.19. For the substance DFSLSGCPGMNRGDYDLHSK, the amyloid nucleation score entry was “inactive”.

DFSWNGGNFTFVFSKCGL showed an amyloid nucleation score of 2 ± 0.22. To DFVDGVPL belongs 0.415 ± 0.8. In the case of DFYNRASLSYTSDVASGSPC it was “inactive”; in that of DGALNTFIDYGLSTAIKKIN, “inactive”.

In the case of DGGMR, the amyloid nucleation score came to 0.322 ± 0.5.

In the case of DGGVYTNINIFGCLVGFGGW, the amyloid nucleation score was determined as 8.006 ± 0.026.

Consider DGVFRCKKRSSNFSDKSVCM, for which the amyloid nucleation score turned out to be 0.641 ± 0.74. To DGVSMFWMPHAKRALLYGSY belongs 0.063 ± 1.1; to DIFIGNSVCGVYRMVNMYSY, “inactive”.

DIHQFGCTHIGCVIGYCCRV registered an amyloid nucleation score of 8.504 ± 0.031. Consider DISCCLYRDTPVWERKDYVA, for which the amyloid nucleation score is -0.506 ± 1.

DIVANDKMMIIRVIMGTWCH showed an amyloid nucleation score of 0.927 ± 0.45. In the case of DKFMLVSCVYSDNLLVIYSG it was “inactive”; in that of DKWAFVRITRQEPPASIRMD, -0.939 ± 0.76. In the case of DLFLRYY it was “inactive”. To DLITLMKSAIPQPNMRLNSL belongs 0.105 ± 0.57; to DLKVWAWKLILFGIMDLGGH, 3.89 ± 0.048. For the substance DLQIFTLLFTR, the amyloid nucleation score result is “inactive”. In the case of DLQSRDYPMADIVHIGIQRH it was -0.754 ± 0.34; in that of DLRHASVVVNRWILCLLGHI, 0.106 ± 1. In the case of DLTGGVRLRRWGWTSCSGNG it was 0.404 ± 0.46. For the substance DLVVELGESQQPWPLVRSRP, the amyloid nucleation score worked out at 0.6 ± 0.64. Substance DLWGVI returned an amyloid nucleation score of 8.81 ± 0.026. In the case of DMERLAGYLQVRSKGMMRHT it was 0.155 ± 0.42. In the case of DMSNQFYELVAMILMNST it was -0.823 ± 0.32. With DNDYIYRYPWP, the amyloid nucleation score was -0.288 ± 1.1.

In the case of DNKYGFMIVIYTYSAGDAEE, the amyloid nucleation score was determined as 2.62 ± 0.061. For the substance DNSIRTLEILKSGNIVRGPR, the amyloid nucleation score entry is “inactive”.

In turn, DPGSRDMIG registered an amyloid nucleation score of 0.043 ± 1. In the case of DPKHATYAKQRSGMYRYGHW it was 0.691 ± 0.43; in that of DPKVVMLVMTDMLNFG, 5.71 ± 0.06.

With DQFRHLVTGSNNTIIKYSGV, the amyloid nucleation score entry is “inactive”. Substance DQLWRIRYWLLTDVGRNRIF returned an amyloid nucleation score of 0.343 ± 0.38. In the case of DRCMFNYVIEVHVYSCVRFW it was 4.67 ± 0.079.

DRFQMGCLWGNNEYLLSAMA had an amyloid nucleation score of -1.97 ± 0.75. In the case of DRHRFIHFYAQGERKLSRTM it was -0.358 ± 0.79. In the case of DRIGIRYWG it was 1.34 ± 0.14.

For the substance DRLLDLIVWGVFWQLGMRFL, the amyloid nucleation score result is “inactive”. To DRLMLALGKGHGFEIGGPVL belongs 1.37 ± 0.39; to DRNPSGNSERPHVMPHPSVD, -0.146 ± 0.32; to DRRPNCIFLDGSYRRDV, 0.034 ± 1.1. In the case of DRSAIMVRCNQIFHISPIGF it was 6.31 ± 0.064. To DRVLRVDSLSAVAVNNLVVR belongs -0.178 ± 1.1; to DRVLTPNKGGKPRTLPHRDS, 1.19 ± 0.37. In turn, DRVSVVIAGDQKPEFRRGKR yielded an amyloid nucleation score of -0.469 ± 0.45.

DSASVRVVIADEDLSAVVRA came in with an amyloid nucleation score of 1.72 ± 0.27. In the case of DSCRGMVSFCG it was -0.399 ± 0.35; in that of DSFSSWYDFQFVWSVTVNRM, “inactive”; in that of DSLLKVLRRIWCLYVGGNLI, -0.758 ± 0.37. DSLTQILTVSCVCYEESMRI showed an amyloid nucleation score of -0.613 ± 0.48. To DSLYWSRCSSFRTKQEVSDM belongs 0.907 ± 0.3. As for DSQKLAGVVSIKVSVANVLS, the amyloid nucleation score turned out to be 3.9 ± 0.11.

DSSYG gave an amyloid nucleation score of 0.285 ± 0.74.
